Values of other authors, collected in PMC8189991.

Biological target: Asp96 (UniProt position 109, PLLLLDLALLV)
Assay: IR

## Bacteriorhodopsin (Halobacterium salinarum (not stated in the article; inferred))
  pKa: above 12
